Measured values reported in FireProtDB (doi:10.1021/bi049320b).

B1: Barstar, P11540 (parent)
chain: MKKAVINGEQIRSISDLHQTLKKELALPEYYGENLDALWDCLTGWVEYPLVLEWRQFEQSKQLTENGAESVLQVFREAKAEGCDITIILS

Variants of: B1
Settings: Bacillus amyloliquefaciens, pH 8, 25 °C, Urea, Fluorescence, Tris-HCl 30 mM, structure 1BTA, whole UniProt chain shown

Variant	ddG of mutation (higher = less stable) (KCl 0.5 M) [kcal/mol]	denaturant m value (KCl 0.5 M) [kcal/mol/M]	unfolding free energy (KCl 0.5 M) [kcal/mol]	ddG of mutation (higher = less stable) (KCl 1.0 M) [kcal/mol]	denaturant m value (KCl 1.0 M) [kcal/mol/M]	unfolding free energy (KCl 1.0 M) [kcal/mol]	ddG of mutation (higher = less stable) [kcal/mol]	denaturant m value [kcal/mol/M]	unfolding free energy [kcal/mol]	ddG of mutation (higher = less stable) (KCl 1 M) [kcal/mol]	denaturant m value (KCl 1 M) [kcal/mol/M]	unfolding free energy (KCl 1 M) [kcal/mol]	ddG of mutation (higher = less stable) (KCl 0.5M) [kcal/mol]	denaturant m value (KCl 0.5M) [kcal/mol/M]	unfolding free energy (KCl 0.5M) [kcal/mol]
K61E	1.3	1.19	4.5	1.4	1.13	5.5	0.6	1.44	4.2	–	–	–	–	–	–
K61L	-0.4	1.17	6.2	-0.4	1.16	7.3	-1	1.3	5.8	–	–	–	–	–	–
K22A	0.8	1.1	5	–	–	–	1.4	1.02	3.4	0.8	1.11	6.1	–	–	–
K22Q	1.2	1.18	4.6	–	–	–	0.7	1.32	4.1	1.2	1.12	5.7	–	–	–
R76Q	–	–	–	–	–	–	–	–	–	0.4	1.17	6.5	0.4	1.15	5.4
R76L	-0.7	1.13	6.5	-0.7	1.15	7.6	-0.7	1.13	5.5	–	–	–	–	–	–
K79A	-0.2	1.18	6	–	–	–	–	–	–	-0.1	1.16	7	–	–	–
K79Q	-0.3	1.14	6.1	–	–	–	-0.4	1.14	5.2	-0.3	1.14	7.2	–	–	–
E58K	0.9	1.14	4.9	0.9	1.16	6	0.4	1.25	4.4	–	–	–	–	–	–
K23Q	1.1	1.12	4.7	1.1	1.14	5.8	0.5	1.22	4.3	–	–	–	–	–	–
